Test results from paper PMC11539623 (Biochimica et biophysica acta. Gene regulatory mechanisms, 2023).

Molecular target: T1, His-tagged full length Taf14 (S. cerevisiae, UniProt P35189 1-244, labeled with His-Tag Labeling Kit RED-tris-NTA (2nd Generation))
T1 sequence (looked up): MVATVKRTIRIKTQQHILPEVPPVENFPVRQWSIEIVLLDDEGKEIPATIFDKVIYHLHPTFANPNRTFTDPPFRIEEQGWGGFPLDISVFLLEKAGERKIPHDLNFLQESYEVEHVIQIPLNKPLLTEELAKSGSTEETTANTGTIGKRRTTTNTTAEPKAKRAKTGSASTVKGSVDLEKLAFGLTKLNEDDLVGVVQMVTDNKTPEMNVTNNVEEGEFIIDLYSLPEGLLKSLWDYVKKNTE
Assay: MST

B1: Snf5 ET domain binding motif peptide (aa 782-793) (peptide, UniProt P18480 782-793, looked up)
peptide: GHSLLLSIKLPG
fold weaker binding than the isolated Taf14ET: 7 fold
